Columns and labels:
[1] = target: protein extracted from High-5 cells infected with wild-type baculovirus; test: antigen dot blot, negative control extract of wild-type baculovirus infected High-5 cells, mAb 1:100
[2] = target: native envelope glycoprotein (Egp) on purified DEN-2 virus (dengue 2 virus) (UniProt P14340); test: antigen dot blot, purified DEN-2 virus, mAb 1:100, 125I goat anti-mouse immunoglobulin
[3] = target: protein expressed by the recombinant baculovirus clone containing DEN-2 prME genes (ACNPV-prME) (dengue 2 virus); test: antigen dot blot, extract of infected High-5 cells, mAb 1:100, 125I goat anti-mouse immunoglobulin
[4] = target: dengue 2 virus recombinant envelope glycoprotein (rEgp) expressed by baculovirus (dengue 2 virus (strain PR 159)) (UniProt P12823); test: as above
[5] = target: dengue 2 virus recombinant envelope glycoprotein (rEgp) expressed by baculovirus (dengue 2 virus (strain PR 159)) (UniProt P12823); test: particle fluorescence assay (PFCIA), FITC-labeled mAb on antigen-coated polystyrene beads, pH 5.0, partially-purified recombinant E protein
[6] = target: dengue 2 virus recombinant envelope glycoprotein (rEgp) expressed by baculovirus (dengue 2 virus (strain PR 159)) (UniProt P12823); test: particle fluorescence assay (PFCIA), FITC-labeled mAb on antigen-coated polystyrene beads, pH 5.0, lysate of cells infected with the E-protein recombinant baculovirus
[7] = target: native envelope glycoprotein (Egp) on purified DEN-2 virus (dengue 2 virus) (UniProt P14340); test: particle fluorescence assay (PFCIA), FITC-labeled mAb on antigen-coated polystyrene beads, pH 5.0, purified DEN-2 virus

Substance	Reactivity with antigen (cpm) [1] [cpm]	Reactivity with antigen (cpm) [2] [cpm]	Reactivity with antigen (cpm) [3] [cpm]	Reactivity with antigen (cpm) [4] [cpm]	Binding affinity [5]	Binding affinity [6]	Binding affinity [7]
monoclonal antibody 4G2	1000	16800	5000	8500	2.3e-06	2.9e-06	1.3e-06
monoclonal antibody 3H5	1400	7500	10100	13600	–	–	–
